“Also recorded” adds a separate entry of the source.

We go through 1 molecule from patent publication US8114412B2, “T. cruzi-derived neurotrophic agents and methods of use therefor” (priority 1999, dated 2012).

In one assay the test system is PC12 cells. In words: Trophic factor withdrawal-induced apoptosis of PC12 cells (DAPI/TUNEL). As to conditions: serum-free RPMI-1640/0.2% BSA, 17 hours, DAPI or TUNEL. The class given is cell-based, rat. In outline: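 PC12 cells were washed and plated at 2×10^5/ml in serum-free RPMI/0.2% BSA on collagen, with or without test agents. Apoptosis was scored by DAPI nuclear staining (300-400 cells counted) or TUNEL. Protection was calculated as 100% − (apoptosis% with agent ÷ apoptosis% in RPMI alone)×100%; wortmannin or LY294002 was added after 24 h, with DAPI read 24 h later.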

A further assay deals with N18 cells. Description: Neurite outgrowth assay in N18 cells. In kind it is cell-based. As to conditions: immobilized proteins coated at 500 μg/ml, 17 hours (FIG. 3A). On the procedure:
FIG. 3A is a graph showing that neurite outgrowth in N18 cells is induced by immobilized laminin (Ln), immobilized TS and immobilized fragments of TS. Proteins were immobilized by incubating plates which contained wells filled with solutions of the proteins (protein concentration was 500 μg/ml) at 4° C. overnight. The protein solutions were removed and the plates were further incubated with 1% BSA at room temperature for one hour. N18 cells were cultured in the coated wells in serum-free RPMI-1640/0.2% BSA for 17 hours, and neurite outgrowth was measured by phase-contrast microscopy. […] Ln, laminin; TS, purified T. cruzi trans-sialidase; 7F, recombinant TS from clone 7F; 19Y, recombinant TS from clone 19Y; TS-F, recombinant fragment consisting of amino acid residues 33-666 of TS (SEQ ID NO:2); TS-CC-47, recombinant fragment consisting of amino acid residues 79-478 of TS (SEQ ID NO:2); TS-Cat-47, recombinant fragment consisting of amino acid residues 79-415 of TS (SEQ ID NO:2); BSA, bovine serum albumin.
96-well microtiter plates were coated overnight at 4° C. with the TS or peptides or fragments thereof, or with control proteins laminin (Ln) or bovine serum albumin (BSA) at 500 μg/ml. After removing the compounds, the plates were further incubated with 1% BSA for 1 hour at room temperature and immediately used as substratum for PC12 or N18 (Prasad, K. N., Biol Rev Camb Philos Soc, 66:431-451 (1991)) cells in serum-free RPMI/0.2% BSA. Neurite outgrowth was measured using a phase-contrast microscope 17 hours later.

A further assay has as its system Akt kinase in PC12 cells. In words: Immunodetection of activated Akt (Ser 473) in PC12 cells. The class given is cell-based, rat. Conditions: 100 ng/ml, 2, 5 or 10 minutes; phospho-Akt (Ser 473) antibody. The method, then: PC12 cells were deprived of serum for 24-48 hours, stimulated with TS, TS-F or LTR for 2, 5 or 10 minutes and immediately lysed with 2% SDS. In studies using the PI-3 kinase inhibitor, LY294002 (LY), cells were pre-treated with the inhibitor (1 μM) for 30 min prior to the addition of TS-F or TS. The proteins in the cell lysate were separated in SDS-10% polyacrylamide gels, transferred to nitrocellulose membrane (Bio-Rad) and the phosphorylated form of protein kinase Akt was detected with phospho-Akt (Ser 473) antibody (New England BioLabs, Beverly, Mass.), followed by alkaline phosphatase-conjugated secondary antibody (Promega, Madison, Wis.). Bands corresponding to phospho-Akt (60 kDa) were quantified using a scanning densitometer (Bio-Rad).

Assay [1] deals with human bladder carcinoma T-24 cell line. In words: IL-6 secretion by T-24 carcinoma cells (ELISA). Conditions: 24 hours culture. The class given is cell-based. In general terms: An ELISA detects its analyte on a solid surface through an enzyme-linked reagent.
The subject of the next assay is human Schwann cells. In words: Serum withdrawal-induced apoptosis of immortalized human Schwann cells (DAPI). In kind it is cell-based.

B1: TS-F: recombinant full catalytic domain of TS, amino acid residues 33-666, His-tagged, expressed in E. coli (protein, listed as Trypanosoma cruzi)
chain: ETQIAIKNSRVSSVSRVVDPTVIVKGNKLYVLVGSYYSSRSYWSSHGDARDWDILLAVGEVTKSTAGGKITASIKWGSPVSLKKFFPAEMEGMHTNQFLGGAGVAIVASNGNLVYPVQVTNKRKQVFSKIFYSEDDGKTWKFGKGRSDFGCSEPVALEWEGKLIINTRVDWKRRLVYESSDMEKPWVEAVGTVSRVWGPSPKSNQPGSQTSFTAVTIEGMRVMLFTHPLNFKGRCVRDRLNLWLTDNQRIYNVGQVSIGDENSAYSSVLYKDDKLYCLHEINTDEVYSLVFARLVGELRIIKSVLRSWKNWTATCPAFAPLLIQPLRRQRVVVVPLSPRLVLLAFCRQRLPKRMGGSYRCVNASTANAERVRNGLKFAGVGGGALWPVSQQGQNQRYRFANHAFTLVASVTIHEAPRAASPLLGASLDSSGGKKLLGLSYDEKHQWQPIYGSTPVTPTGSWETGKRYHLVLTMANKIGSVYIDGELLEGSGQTVVPDGRTPDISHFYVGGYKRSDMPTISHVTVNNVLLYNRRQLNTEEIRTLFLSQDLIGTEAHMDSSSDSSAHSTPSTPADSSAHSTPSTPVDSSAHSTPSTPADSSAHGTPSTPVDSSAHGTPSTPADSSAHGTPSTPVDS
modifications: His tag
notes: recombinant full catalytic domain of TS, amino acid residues 33-666, His-tagged, expressed in E. coli
In the case of B1, the “protection of PC12 cells from apoptosis induced by trophic factor withdrawal” value in the assay on PC12 cells is recorded as “survival being induced”. The “neurite outgrowth in N18 cells” value in the assay on N18 cells was “induced neurite outgrowth to about the same extent as the intact enzyme”. In addition, the “phosphorylation/activation of Akt kinase in PC12 cells” value with Akt kinase in PC12 cells is recorded as “effective in activating Akt”. In assay [1], the “IL-6 secretion by T-24 cells” value was “did not promote IL-6 release”. Besides, in the assay on human Schwann cells (CD 500 ng/ml), the “fragmented nuclei in serum-starved Schwann cells transfected with empty vector (neo)” value was “decreased the number of fragmented nuclei by about ten-fold” and the “survival of Schwann cells transfected with PTEN mutant pG129R” value was “did not detectably enhance”. In the assay on human Schwann cells (CD 500 ng/ml (6 nM) in serum-free DMEM, 72 hours, listed as CD), the “protection of Schwann cells from apoptosis compared with 2% serum” value was “nearly as effective as 2% serum”. The “survival of control Schwann cells transfected with GFP vector” value in the assay on human Schwann cells (CD 500 ng/ml, serum-free 48 hours) is recorded as “did increase survival”. The “survival of Schwann cells over expressing kinase-inactive Akt (AktKI)” value in the assay on human Schwann cells (CD 500 ng/ml, serum-free 48 hours, listed as CD) is on record as “did not increase survival; also recorded: did not promote survival”. Also, the “rescue from apoptosis of Schwann cells over expressing PTEN” value with human Schwann cells (CD 500 ng/ml, listed as CD) is “did not rescue cells from apoptotic death”. For the same molecule, in the assay on human Schwann cells (serum-free DMEM, 24-72 hours, DAPI, listed as CD), the “inhibition of serum withdrawal-induced apoptosis of human Schwann cells” value is reported as “protected Schwann cells against apoptosis; also recorded: protected human Schwann cells from apoptosis; also recorded: dose-dependent inhibition”.
